# According to patent US12698507B2, “Methods and compositions for conferring and/or enhancing herbicide tolerance using protoporphyrinogen IX oxidase of various cyanobacteria or variant thereof” (FarmHannong Co., Ltd., priority 2019, dated 2026):
# Residue numbers refer to the chain shown, from its start. In names and notes the source's numbering stands.
# B1: CyPPO19 V305M + I408W + F360I: variant of CyPPO19 PPO protein (SEQ ID NO: 1) (protein)
# chain: MSEVDVAIVGGGLSGLSLAWRLQQSAPQYSVVLLEASDRLGGNITTQTAEGFVWELGPNSFAPTPALLQLIAEVGLQSELIRGDRHLPRYIYWRGQLYPLQPTRPLALATSNLLSPWGKVRAALGALGFVPPYLGSGDESVNSFFRRHLGQEVAERLVAPFVSGVYAGDPQQLSAAAAFRRIAQLEKLGGGLIAGALHLRRQQAPKPKPPTSVQMRPGELGSFKEGLAALPRAIAQQLKAPIHLQTPVQEITPDPKGGYLLRSGEQTWRARSVVLATPAYQTAELVAPFQPAIARVLATIPYPTMACVVLAYPAGLGRSVRPGFGVLIPRSQGIRTLGTIWSSCLFPQRTPAGWQVFTSIIGGATDPDLASLSEEAIVQQVQQDLNRLLDLPAAKARLLGMKVWRRAWPQYMVGYPEQWQQVTHALSQTPGLFLCSNYAEGVALGDRVEHGNRTAAAVAAYLSGGQP
# modifications: Synthetic_PPO of Thermosynechococcus elongatus PKUAC-SCTE542 (comprising GenBank No. CP032152.1)
# B2: CyPPO19 L327T + I408R + F360M: variant of CyPPO19 PPO protein (SEQ ID NO: 1) (protein)
# chain: B1 chain with M305V, L327T, I360M, W408R
# modifications: Synthetic_PPO of Thermosynechococcus elongatus PKUAC-SCTE542 (comprising GenBank No. CP032152.1)
# B3: CyPPO19 L327T + I408W + F360V: variant of CyPPO19 PPO protein (SEQ ID NO: 1) (protein)
# chain: B1 chain with M305V, L327T, I360V
# modifications: Synthetic_PPO of Thermosynechococcus elongatus PKUAC-SCTE542 (comprising GenBank No. CP032152.1)
# B4: CyPPO19 R89A + V165C + A167C + F360I: variant of CyPPO19 PPO protein (SEQ ID NO: 1) (protein)
# chain: B1 chain with R89A, V165C, A167C, M305V, W408I
# modifications: Synthetic_PPO of Thermosynechococcus elongatus PKUAC-SCTE542 (comprising GenBank No. CP032152.1)
# B5: CyPPO19 V305L + I408R + F360L: variant of CyPPO19 PPO protein (SEQ ID NO: 1) (protein)
# chain: B1 chain with M305L, I360L, W408R
# modifications: Synthetic_PPO of Thermosynechococcus elongatus PKUAC-SCTE542 (comprising GenBank No. CP032152.1)
# B6: CyPPO19 R89A + V165S + V305M + F360M: variant of CyPPO19 PPO protein (SEQ ID NO: 1) (protein)
# chain: B1 chain with R89A, V165S, I360M, W408I
# modifications: Synthetic_PPO of Thermosynechococcus elongatus PKUAC-SCTE542 (comprising GenBank No. CP032152.1)
# B7: CyPPO19 R89A + V165S + I408R + F360L: variant of CyPPO19 PPO protein (SEQ ID NO: 1) (protein)
# chain: B1 chain with R89A, V165S, M305V, I360L, W408R
# modifications: Synthetic_PPO of Thermosynechococcus elongatus PKUAC-SCTE542 (comprising GenBank No. CP032152.1)
# B8: CyPPO19 V165C + F360L: variant of CyPPO19 PPO protein (SEQ ID NO: 1) (protein)
# chain: B1 chain with V165C, M305V, I360L, W408I
# modifications: Synthetic_PPO of Thermosynechococcus elongatus PKUAC-SCTE542 (comprising GenBank No. CP032152.1)
# B9: CyPPO19 R89A + V165C + L327T + F360V: variant of CyPPO19 PPO protein (SEQ ID NO: 1) (protein)
# chain: B1 chain with R89A, V165C, M305V, L327T, I360V, W408I
# modifications: Synthetic_PPO of Thermosynechococcus elongatus PKUAC-SCTE542 (comprising GenBank No. CP032152.1)
# B10: CyPPO19 V305M + I408W + F360V: variant of CyPPO19 PPO protein (SEQ ID NO: 1) (protein)
# chain: B1 chain with I360V
# modifications: Synthetic_PPO of Thermosynechococcus elongatus PKUAC-SCTE542 (comprising GenBank No. CP032152.1)
# Tested on: PPO-deficient BT3 E. coli (ΔPPO)
# Assay: PPO-inhibiting herbicide tolerance test of PPO variants in E. coli (growth on herbicide-containing LB agar)
# Assay type: cell-based
# Conditions: CyPPO19 variants in BT3 (ΔPPO) E. coli; LB agar with 0 to 2,000 μM herbicide, 37° C., dark, 16-20 hours
# How it was run: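 PPO-deficient BT3 E. coli expressing each variant from pET303 were diluted to OD600=0.5, then 10-fold serially, and spotted on LB-ampicillin agar with 0 to 2,000 μM herbicide. After 16-20 h at 37° C. in the dark, growth relative to wild type was scored from '−' (equivalent) to '+' per 10-fold resistance, max '+++++'.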
Molecule,"tolerance level relative to wild type, Carfentrazone","tolerance level relative to wild type, Flumioxazin","tolerance level relative to wild type, Fomesafen","tolerance level relative to wild type, Oxyfluorfen","tolerance level relative to wild type, Saflufenacil","tolerance level relative to wild type, Sulfentrazone","tolerance level relative to wild type, Tiafenacil"
B1,+ (‘+’ per each 10-fold resistance),+++++ (until ‘+++++’ as maximal resistance),+++ (‘+’ per each 10-fold resistance),+++ (‘+’ per each 10-fold resistance),+++++ (until ‘+++++’ as maximal resistance),+++ (‘+’ per each 10-fold resistance),+++++ (until ‘+++++’ as maximal resistance)
B2,+ (‘+’ per each 10-fold resistance),+++++ (until ‘+++++’ as maximal resistance),++ (‘+’ per each 10-fold resistance),+++ (‘+’ per each 10-fold resistance),+++ (‘+’ per each 10-fold resistance),+ (‘+’ per each 10-fold resistance),+++++ (until ‘+++++’ as maximal resistance)
B3,++ (‘+’ per each 10-fold resistance),+++++ (until ‘+++++’ as maximal resistance),+++++ (until ‘+++++’ as maximal resistance),+++++ (until ‘+++++’ as maximal resistance),+++++ (until ‘+++++’ as maximal resistance),++++ (‘+’ per each 10-fold resistance),+++++ (until ‘+++++’ as maximal resistance)
B4,+ (‘+’ per each 10-fold resistance),+++ (‘+’ per each 10-fold resistance),++ (‘+’ per each 10-fold resistance),+ (‘+’ per each 10-fold resistance),+++ (‘+’ per each 10-fold resistance),++ (‘+’ per each 10-fold resistance),+++ (‘+’ per each 10-fold resistance)
B5,+ (‘+’ per each 10-fold resistance),++++ (‘+’ per each 10-fold resistance),+ (‘+’ per each 10-fold resistance),++ (‘+’ per each 10-fold resistance),+++++ (until ‘+++++’ as maximal resistance),++ (‘+’ per each 10-fold resistance),+++++ (until ‘+++++’ as maximal resistance)
B6,+ (‘+’ per each 10-fold resistance),+++++ (until ‘+++++’ as maximal resistance),+++ (‘+’ per each 10-fold resistance),++ (‘+’ per each 10-fold resistance),+++++ (until ‘+++++’ as maximal resistance),+++ (‘+’ per each 10-fold resistance),+++++ (until ‘+++++’ as maximal resistance)
B7,+ (‘+’ per each 10-fold resistance),++++ (‘+’ per each 10-fold resistance),++ (‘+’ per each 10-fold resistance),++ (‘+’ per each 10-fold resistance),++++ (‘+’ per each 10-fold resistance),+++ (‘+’ per each 10-fold resistance),++++ (‘+’ per each 10-fold resistance)
B8,+ (‘+’ per each 10-fold resistance),++++ (‘+’ per each 10-fold resistance),+++ (‘+’ per each 10-fold resistance),++ (‘+’ per each 10-fold resistance),++++ (‘+’ per each 10-fold resistance),++++ (‘+’ per each 10-fold resistance),++++ (‘+’ per each 10-fold resistance)
B9,+ (‘+’ per each 10-fold resistance),++++ (‘+’ per each 10-fold resistance),+ (‘+’ per each 10-fold resistance),+ (‘+’ per each 10-fold resistance),+++ (‘+’ per each 10-fold resistance),++ (‘+’ per each 10-fold resistance),+++ (‘+’ per each 10-fold resistance)
B10,+ (‘+’ per each 10-fold resistance),+++++ (until ‘+++++’ as maximal resistance),+++ (‘+’ per each 10-fold resistance),+++ (‘+’ per each 10-fold resistance),+++++ (until ‘+++++’ as maximal resistance),++++ (‘+’ per each 10-fold resistance),+++++ (until ‘+++++’ as maximal resistance)
